Experimental data taken from US6475744 (GENERAL HOSPITAL CORPORATION A MASSACHUSETTS, dated 2002).

Biological target: T1, βgalactosidase (UniProt P00722 1-1024 = β-galactosidase, limits assumed)
T1 construct: Construct not described; also called specificity control
Experiment: co-immunoprecipitation from co-transfected COS7 cells, anti-HA IP

T1 sequence (P00722 whole entry): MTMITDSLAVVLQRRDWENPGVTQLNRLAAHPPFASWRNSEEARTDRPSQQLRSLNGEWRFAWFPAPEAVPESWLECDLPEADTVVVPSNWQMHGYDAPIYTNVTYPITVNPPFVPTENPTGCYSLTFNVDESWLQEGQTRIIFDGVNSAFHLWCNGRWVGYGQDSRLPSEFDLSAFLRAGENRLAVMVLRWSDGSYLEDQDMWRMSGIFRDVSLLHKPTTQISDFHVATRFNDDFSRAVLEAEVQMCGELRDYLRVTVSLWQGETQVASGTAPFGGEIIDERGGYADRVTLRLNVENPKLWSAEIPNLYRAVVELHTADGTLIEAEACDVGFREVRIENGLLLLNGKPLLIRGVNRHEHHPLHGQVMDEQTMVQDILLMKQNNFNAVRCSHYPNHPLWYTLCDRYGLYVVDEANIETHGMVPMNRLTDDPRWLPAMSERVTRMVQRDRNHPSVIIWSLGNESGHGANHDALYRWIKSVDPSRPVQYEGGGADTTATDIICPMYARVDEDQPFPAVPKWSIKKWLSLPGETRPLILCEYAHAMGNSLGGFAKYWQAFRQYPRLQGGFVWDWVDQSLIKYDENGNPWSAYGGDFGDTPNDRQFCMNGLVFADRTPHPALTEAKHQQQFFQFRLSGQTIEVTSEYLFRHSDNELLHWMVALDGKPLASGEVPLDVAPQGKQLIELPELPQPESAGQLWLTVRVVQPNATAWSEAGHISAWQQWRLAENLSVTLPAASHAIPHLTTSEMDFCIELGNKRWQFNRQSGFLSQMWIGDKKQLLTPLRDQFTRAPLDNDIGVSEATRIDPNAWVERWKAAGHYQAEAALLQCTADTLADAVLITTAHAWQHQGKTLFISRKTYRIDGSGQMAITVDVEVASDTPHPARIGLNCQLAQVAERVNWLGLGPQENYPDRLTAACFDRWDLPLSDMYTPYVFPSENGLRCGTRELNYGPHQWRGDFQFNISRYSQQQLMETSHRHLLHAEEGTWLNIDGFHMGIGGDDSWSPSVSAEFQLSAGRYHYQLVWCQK

B1: mCRY1-HA (other, mouse, UniProt P97784 1-606, looked up, not shown: small tags and cut ends)
chain: MGVNAVHWFRKGLRLHDNPALKECIQGADTIRCVYILDPWFAGSSNVGINRWRFLLQCLEDLDANLRKLNSRLFVIRGQPADVFPRLFKEWNITKLSIEYDSEPFGKERDAAIKKLATEAGVEVIVRISHTLYDLDKIIELNGGQPPLTYKRFQTLVSKMEPLEMPADTITSDVIGKCMTPLSDDHDEKYGVPSLEELGFDTDGLSSAVWPGGETEALTRLERHLERKAWVANFERPRMNANSLLASPTGLSPYLRFGCLSCRLFYFKLTDLYKKVKKNSSPPLSLYGQLLWREFFYTAATNNPRFDKMEGNPICVQIPWDKNPEALAKWAEGRTGFPWIDAIMTQLRQEGWIHHLARHAVACFLTRGDLWISWEEGMKVFEELLLDADWSINAGSWMWLSCSSFFQQFFHCYCPVGFGRRTDPNGDYIRRYLPVLRGFPAKYIYDPWNAPEGIQKVAKCLIGVNYPKPMVNHAEASRLNIERMKQIYQQLSRYRGLGLLASVPSNSNGNGGLMGYAPGENVPSCSSSGNGGLMGYAPGENVPSCSGGNCSQGSGILHYAHGDSQQTHSLKQGRSSAGTGLSSGKRPSQEEDAQSVGPKVQRQSSN
B1: no binding.
